Assay results from patent publication US20210130436A1 (published 2021).
Numbering of substitutions follows the chain as printed. In names and notes the source's numbering stands. Each block holds one binder with its values, some of them ahead of it.

Tests used:
[1] = molecular target: T1, human PD-L1, full-length, on CHO cells (human, UniProt Q9NZQ7 19-290); assay: flow cytometry, CHO cells stably expressing PD-L1
T1 construct: also called huPD-L1; CD274

[2] = molecular target: T2, CD28 endogenously expressed on Jurkat/IL2 reporter cells (human, UniProt P10747 19-220); assay: flow cytometry, Jurkat cells (CD28)
T2 construct: also called Jurkats (CD28)

[3] = molecular target: T3, CD28 (endogenously expressed on Jurkat/IL2 reporter cells) (human, UniProt P10747 19-220); assay: flow cytometry, Jurkat/IL2 reporter cells (endogenous CD28), PE anti-human Fc
T3 construct: Endogenous CD28 of Jurkat cells; also called human CD28

[4] = molecular target: T1, human PD-L1, full-length, on CHO cells; assay: flow cytometry; PD-L1 MFI over CD28 MFI
[5] = molecular target: T2, CD28 endogenously expressed on …; assay: flow cytometry, Jurkat cells (CD28); MFI relative to WT CD80 ECD-Fc
[6] = molecular target: T4, human CTLA4 (CTLA-4), full-length, on CHO cells (human, UniProt P16410 36-223); assay: flow cytometry, CHO cells stably expressing CTLA4
T4 construct: also called huCTLA4

[7] = molecular target: T1, human PD-L1, full-length, on CHO cells; assay: flow cytometry, CHO/PD-L1 cells; MFI relative to WT CD80 ECD-Fc
[8] = molecular target: T4, human CTLA4 (CTLA-4), full-length, on …; assay: flow cytometry, CHO/CTLA4 cells; MFI relative to WT CD80 ECD-Fc
[9] = molecular target: T5, human PD-L1 (full-length, expressed on CHO cells) (human, UniProt Q9NZQ7 19-290); assay: flow cytometry, CHO cells expressing huPD-L1, PE anti-human Fc
T5 construct: also called huPD-L1; CD274

CD96 = molecular target: T6, CD96 (UniProt P40200 22-585, limits assumed); assay: flow cytometry, Fc fusion at 100 nM, CD96-transfected cells
T6 construct: whole, on cells
T6 sequence (looked up): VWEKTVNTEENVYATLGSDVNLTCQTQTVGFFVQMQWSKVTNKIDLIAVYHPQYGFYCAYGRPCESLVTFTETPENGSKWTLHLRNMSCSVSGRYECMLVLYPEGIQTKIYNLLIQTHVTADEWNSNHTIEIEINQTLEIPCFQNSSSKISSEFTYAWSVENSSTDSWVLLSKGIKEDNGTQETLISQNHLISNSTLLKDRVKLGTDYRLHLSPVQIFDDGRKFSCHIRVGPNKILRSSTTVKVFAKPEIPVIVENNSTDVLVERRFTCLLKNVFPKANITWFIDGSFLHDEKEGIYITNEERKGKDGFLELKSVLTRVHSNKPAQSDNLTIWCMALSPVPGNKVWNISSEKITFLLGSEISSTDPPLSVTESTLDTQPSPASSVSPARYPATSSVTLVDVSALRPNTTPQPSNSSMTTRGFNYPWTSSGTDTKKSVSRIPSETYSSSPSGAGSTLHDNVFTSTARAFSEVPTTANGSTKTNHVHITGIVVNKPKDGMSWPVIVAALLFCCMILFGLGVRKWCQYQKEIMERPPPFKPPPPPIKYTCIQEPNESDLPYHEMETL

CD226 = molecular target: T7, CD226 (Homo sapiens (Human), UniProt Q15762 19-336); assay: flow cytometry, Fc fusion at 100 nM, CD226-transfected cells
T7 sequence: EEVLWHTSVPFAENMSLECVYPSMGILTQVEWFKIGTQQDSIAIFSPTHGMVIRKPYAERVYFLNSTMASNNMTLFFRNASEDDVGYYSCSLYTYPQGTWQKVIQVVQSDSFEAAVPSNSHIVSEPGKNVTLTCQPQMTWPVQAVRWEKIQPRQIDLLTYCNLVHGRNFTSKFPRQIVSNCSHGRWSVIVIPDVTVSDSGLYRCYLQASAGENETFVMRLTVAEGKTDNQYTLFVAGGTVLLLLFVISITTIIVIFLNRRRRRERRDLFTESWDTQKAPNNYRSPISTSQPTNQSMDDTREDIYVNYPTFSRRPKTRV

T1 sequence (Q9NZQ7 19-290): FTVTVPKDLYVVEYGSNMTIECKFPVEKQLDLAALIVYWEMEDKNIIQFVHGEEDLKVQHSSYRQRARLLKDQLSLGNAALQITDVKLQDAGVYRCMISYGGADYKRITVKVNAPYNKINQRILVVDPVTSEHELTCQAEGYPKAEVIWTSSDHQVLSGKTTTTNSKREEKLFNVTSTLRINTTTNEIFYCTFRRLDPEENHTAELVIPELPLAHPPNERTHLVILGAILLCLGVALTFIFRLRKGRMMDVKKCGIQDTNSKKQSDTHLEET
T4 sequence (P16410 36-223): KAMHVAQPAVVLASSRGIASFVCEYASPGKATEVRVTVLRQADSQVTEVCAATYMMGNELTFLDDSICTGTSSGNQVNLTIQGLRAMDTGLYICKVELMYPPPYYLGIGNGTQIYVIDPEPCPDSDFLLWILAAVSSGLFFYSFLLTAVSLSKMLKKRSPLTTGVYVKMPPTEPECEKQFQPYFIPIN
T5 sequence (Q9NZQ7 19-290): as the sequence (Q9NZQ7 19-290) above

B1: variant CD80 IgV-Fc M47L/L85Q (Fc fusion, not shown: small tags and cut ends; a dimerising Fc or GST)
chain: VIHVTKEVKEVATLSCGHNVSVEELAQTRIYWQKEKKMVLTMMSGDLNIWPEYKNRTIFDITNNLSIVILALRPSDEGTYECVVQKYEKDAFKREHLAEVTLSVKAD
MFI at 33.3 nM [1]: 5800 MFI
MFI at 33.3 nM [2]: 88.1 MFI

B6: variant CD80 IgV-Fc D46V/M47L (Fc fusion, not shown: small tags and cut ends; a dimerising Fc or GST)
chain: B1 chain with D46V, Q85L
MFI at 33.3 nM [1]: 3900 MFI
MFI at 33.3 nM [6]: 49700 MFI

B7: variant CD80 IgV-Fc D46V/V68M (Fc fusion, not shown: small tags and cut ends; a dimerising Fc or GST)
chain: B1 chain with D46V, L47M, V68M, Q85L
MFI at 33.3 nM [1]: 2270 MFI
MFI at 33.3 nM [2]: 556 MFI
Ratio of PDL1:CD28 [4]: 4.1 ratio
Fold change to WT CD80 [5]: 0.8 fold
MFI at 33.3 nM [6]: 5330 MFI
Fold change to WT CD80 [7]: 17.7 fold
Fold change to WT CD80 [8]: 0.1 fold

B8: variant CD80 IgV-Fc E35D (Fc fusion, not shown: small tags and cut ends; a dimerising Fc or GST)
chain: B1 chain with E35D, L47M, Q85L
MFI at 33.3 nM [1]: 2580 MFI
MFI at 33.3 nM [2]: 134 MFI
Ratio of PDL1:CD28 [4]: 19.3 ratio
Fold change to WT CD80 [5]: 0.2 fold
MFI at 33.3 nM [6]: 42900 MFI
Fold change to WT CD80 [7]: 20.2 fold
Fold change to WT CD80 [8]: 1.1 fold

B9: variant CD80 IgV-Fc D46V/M47L/L85Q (Fc fusion, not shown: small tags and cut ends; a dimerising Fc or GST)
chain: B1 chain with D46V
MFI at 33.3 nM [1]: 5980 MFI
MFI at 33.3 nM [2]: 567 MFI
Ratio of PDL1:CD28 [4]: 10.5 ratio
Fold change to WT CD80 [5]: 0.8 fold
MFI at 33.3 nM [6]: 40200 MFI
Fold change to WT CD80 [7]: 46.7 fold
Fold change to WT CD80 [8]: 1 fold

B12: variant CD155 IgV-Fc S42G (Fc fusion, not shown: a dimerising Fc or GST)
chain: WPPPGTGDVVVQAPTQVPGFLGDSVTLPCYLQVPNMEVTHVGQLTWARHGESGSMAVFHQTQGPSYSESKRLEFVAARLGAELRNASLRMFGLRVEDEGNYTCLFVTFPQGSRSVDIWLRVL
MFI at 100 nM (CD96): 1700 MFI
MFI at 100 nM (CD226): 2450 MFI

Further lines, results first:

MFI at 33.3 nM [3]: 266 MFI
B2: variant CD80 IgV-Fc S15P/Q33L/E35D/M47L/L85Q (Fc fusion, not shown: a dimerising Fc or GST)
chain: B1 chain with S15P, Q33L, E35D

MFI at 33.3 nM [1]: 4040 MFI
MFI at 33.3 nM [2]: 196 MFI
Ratio of PDL1:CD28 [4]: 20.6 ratio
Fold change to WT CD80 [5]: 0.3 fold
MFI at 33.3 nM [6]: 48000 MFI
Fold change to WT CD80 [7]: 31.6 fold
Fold change to WT CD80 [8]: 1.2 fold
B3: variant CD80 IgV-Fc E35D/D46V/L85Q (Fc fusion, not shown: small tags and cut ends; a dimerising Fc or GST)
chain: B1 chain with E35D, D46V, L47M

MFI at 33.3 nM [9]: 44400 MFI
MFI at 33.3 nM [3]: 258 MFI
B4: variant CD80 IgV-Fc Q33R/E35D/K37E/M47V/L85Q (Fc fusion, not shown: a dimerising Fc or GST)
chain: B1 chain with Q33R, E35D, K37E, L47V

MFI at 33.3 nM [1]: 26100 MFI
MFI at 33.3 nM [6]: 31200 MFI
B5: variant CD80 IgV-Fc E35D/D46V/V68M (Fc fusion, not shown: small tags and cut ends; a dimerising Fc or GST)
chain: B1 chain with E35D, D46V, L47M, V68M, Q85L

MFI at 100 nM (CD96): 1560 MFI
B10: variant CD155 IgV-Fc L104E (Fc fusion, not shown: a dimerising Fc or GST)
chain: B12 chain with G42S, L104E

MFI at 100 nM (CD96): 1540 MFI
MFI at 100 nM (CD226): 3790 MFI
B11: variant CD155 IgV-Fc L104Q (Fc fusion, not shown: a dimerising Fc or GST)
chain: B12 chain with G42S, L104Q

MFI at 100 nM (CD96): 1480 MFI
MFI at 100 nM (CD226): 2150 MFI
B13: variant CD155 IgV-Fc S42C/S52L (Fc fusion, not shown: a dimerising Fc or GST)
chain: B12 chain with G42C, S52L

MFI at 100 nM (CD96): 1860 MFI
MFI at 100 nM (CD226): 2430 MFI
B14: variant CD155 IgV-Fc S52M/V57L (Fc fusion, not shown: a dimerising Fc or GST)
chain: B12 chain with G42S, S52M, V57L
